Measured values from patent US20220220215A1 (CRESCENDO BIOLOGICS, published 2022).
Positions count from the first letter of the chain named. Numbers in names are those of the source. Values belong to the binder of their own block, whether it stands above or below them.

Key:
[1] = target: T1, recombinant Fc-tagged ectodomain of human CD137 (Acro Biosystems 41B-H5258) (human, UniProt Q07011 24-186); assay: SPR, Biacore 8K, single-cycle kinetics; Fc-tagged ectodomain captured on Protein G chip; 1:1 model
T1 construct: Bought protein; not shown: Fc tag
Method: (§1) Binding of Humabody® VH constructs was measured using a single-cycle kinetics method using the BIAcore 8K instrument with 90 second sample injections with a sample concentration range of low nanomolar to high nanomolar. […] The Protein G sensor surface was regenerated with a 20 second injection of 10 mM Glycine buffer, pH 1.5 (GE Healthcare BR100354). Data were analysed using a 1:1 binding model in Biacore Insight Evaluation software, including Humabody® VH constructs with two PD-1 arms.

[2] = target: T2, recombinant Fc-tagged ectodomain of human PD1 (Acro Biosystems PD1-H5257) (human, UniProt Q15116 25-170); assay: as above
T2 construct: Bought protein; not shown: Fc tag
Method: as §1

[3] = target: human CD137 expressed on cells (Jurkat human CD137 NF-kB luciferase reporter cells; human CD8+ T cells) (human, UniProt Q07011 24-255); assay: cell-based or functional assay
[4] = target: T3, human PD-1 expressed on CHO cells (human, UniProt Q15116 21-288); assay: FMAT/Mirrorball on CHO huPD1 cells
T3 construct: also called CHO huPD1; CHO human PD1 cells
Method: (§2) Binding of His-tagged molecules to CHO human CD137, CHO parent and CHO human PD1 cells was assessed using Fluorescence Microvolume Assay Technology (FMAT). All reagents were prepared in FMAT assay buffer (pH 7.4) containing PBS, 0.1% Bovine Serum Albumin, 0.05% Sodium Azide. […] Fluorescence emission was then measured on the TTP Mirrorball plate reader in the FL2 (502 nm-537 nm) and FL5 (677-800 nm) channels following excitation at 488 nm and 640 nm. Data was gated on FL5 perimeter and peak intensity and the FL2 median mean fluorescence intensity of the gated data used for determination of VH binding. Monovalent CD137 specific Humabody® VH, and trispecific molecules with a CD137 binding arm bound to CHO CD137 expressing cells. Trispecific Humabody® VH, with a PD1 binding arm bound to PD1 expressing cells.

[5] = target: T4, human CD137 expressed on CHO cells (human, UniProt Q07011 18-255); assay: FMAT/Mirrorball on CHO huCD137 cells
T4 construct: also called CHO huCD137; CHO human CD137 cells
Method: as §2

[6] = target: T5, Rhesus CD137-Fc tagged protein (rhesus, UniProt H9Z8K9 24-186); assay: BLI (Octet RED384), CD137-Fc on Protein G sensor, 1:1 model
T5 construct: extracellular domain; The Octet paragraph gives no catalogue number; also called rhCD137-Fc
Method: Binding kinetics of purified monovalent VH molecules were measured on a ForteBio Octet RED 384 instrument. Human and Rhesus CD137-Fc tagged protein was diluted to 5 μg/ml in kinetics buffer (0.05% Tween, 1×PBS) and coupled to Protein G biosensors (ForteBio cat no. 18-5082) via the Fc tag. VH were serially diluted (typically 1:2 dilution series starting with 200 nM, VH at the highest concentration) and binding to the CD137-Fc-coupled Protein G biosensors measured. Binding kinetics were determined from the (blank subtracted) sensor gram trace using 1:1 binding models and ForteBio Octet Data Analysis 9.0 software. Example kinetic and binding affinity data obtained is shown Table 18 (monovalent VH).

B1: TPP-1411 PD138G7(G109D)-1GS-CD137A-1GS-HSA2 (bispecific antibody)
chain: EVQLVESGGGVVRPGGSLRLSCAASGFTFDDYAMSWVRQAPGKGLEWVSGITWNGGSTGYADSVKDRFTISRDNAKNSLYLQMNSLRAEDTALYYCVRDKYSYAWSYDDFDIWGQGTMVTVSSGGGGSEVQLVESGGGLVQPGGSLRLSCAASGFTLSNYWMNWVRQAPGKGLEWVANINQDGSERYYVDSVKGRFTISRDNAKNSLYLQMNSLRAEDTAVYYCARGGEGYGVDHYGLDVSGQGTTVTVSSGGGGSEVQLVESGGGLVKPGGSLRLSCAASGFTFSNYNMNWVRQAPGKGLEWVSSISSAGTHIYYADSVKGRFTISRDNAKNSLYLQMNSLRAEDTAVYYCARDPHSTGWYKDFDYWGQGTLVTVSS
Kd [1]: 1.93 nM
koff [1]: 0.000208 s⁻¹
kon [1]: 108000 M⁻¹ s⁻¹
Kd [2]: 4.98 nM
koff [2]: 0.00267 s⁻¹
kon [2]: 537000 M⁻¹ s⁻¹

B8: 003BB172-E01-10 (VHH)
VHH: EVQLVESGGGLVQPGRSLRLSCAASGFTFSNYGMHWVRQAPGKGLEWVAVISNDGNTKTYADSVKGRFTISRDNSKNTLYLQMNSLRTEDTAVYYCAQDETTTVTASYYFDYWGQGTLVTVSS
notes: Human VH single domain antibody, monovalent
EC50 [5]: 1.22 nM
Kd [6]: 36.9 nM
koff [6]: 0.00249 s⁻¹
kon [6]: 67400 M⁻¹ s⁻¹

B9: 003BB172-E01-8 (VHH)
VHH: B8 VHH with L11V, R16G
notes: as for B8
EC50 [5]: 1.08 nM
Kd [6]: 41.4 nM
koff [6]: 0.00269 s⁻¹
kon [6]: 65000 M⁻¹ s⁻¹

B10: 003BB172-E01-6 (VHH)
VHH: B8 VHH with R16G, T78M
notes: Human VH single domain antibody, monovalent; also called CD137B
EC50 [5]: 1.08 nM
Kd [6]: 39 nM
koff [6]: 0.00287 s⁻¹
kon [6]: 73600 M⁻¹ s⁻¹

B11: 003BB172-E01-11 (VHH)
VHH: B8 VHH with L11V
notes: as for B8
EC50 [5]: 1.21 nM
Kd [6]: 33.1 nM
koff [6]: 0.0024 s⁻¹
kon [6]: 72500 M⁻¹ s⁻¹

B12: 003BB172-E01-9 (VHH)
VHH: B8 VHH with R16G, T88A
notes: as for B8
EC50 [5]: 0.849 nM
Kd [6]: 23 nM
koff [6]: 0.00235 s⁻¹
kon [6]: 102000 M⁻¹ s⁻¹

B14: 003BB172-E01-7 (VHH)
VHH: B8 VHH with R16G
notes: Human VH single domain antibody, monovalent; also called CD137C
EC50 [5]: 1.28 nM
Kd [6]: 40.7 nM
koff [6]: 0.00233 s⁻¹
kon [6]: 57300 M⁻¹ s⁻¹

B15: TPP-951: PDA2-6GS-172E1-13-6GS-HSA3-His (bispecific antibody)
chain: EVQLVESGGGVVRPGGSLRLSCAASGFTFDDYAMSWVRQAPGKGLEWVSGITWNAGSTGYADSVKGRFTISRDNAKNSLYLQMNSLRAEDTALYYCVRDKYSYAWSYDDFDIWGQGTMVTVSSGGGGSGGGGSGGGGSGGGGSGGGGSGGGGSEVQLVESGGGVVQPGGSLRLSCAASGFTFSNYGMHWVRQAPGKGLEWVAVISNDGNTKTYADSVKGRFTISRDNSKNTLYLQMNSLRAEDTAVYYCAQDETTTVTASYYFDYWGQGTLVTVSSGGGGSGGGGSGGGGSGGGGSGGGGSGGGGSEVQLLESGGGLVKPGGSLRLSCAASGFTVSSYTMNWVRQAPGKGLEWVSSISSSGRYIYYADSVKGRFTISRDNAKNSLYLQMNSLRAEDTAVYYCARDPRMVGNPHEFDIWGQGTMVTVSSAAAHHHHHH
Jurkat-CD137/CHO-PD-1 Reporter Assay EC50 [3]: 14.1 nM

More lines, now with the values ahead:

Jurkat-CD137/CHO-PD-1 Reporter Assay EC50 [3]: 0.134 nM
Kd [1]: 2.02 nM
koff [1]: 0.000307 s⁻¹
kon [1]: 152000 M⁻¹ s⁻¹
Kd [2]: 4.16 nM
koff [2]: 0.00241 s⁻¹
kon [2]: 580000 M⁻¹ s⁻¹
B2: TPP-1409 CD137A-1GS-HSA2-1GS-PD138G7(G109D) (bispecific antibody)
chain: EVQLVESGGGLVQPGGSLRLSCAASGFTLSNYWMNWVRQAPGKGLEWVANINQDGSERYYVDSVKGRFTISRDNAKNSLYLQMNSLRAEDTAVYYCARGGEGYGVDHYGLDVSGQGTTVTVSSGGGGSEVQLVESGGGLVKPGGSLRLSCAASGFTFSNYNMNWVRQAPGKGLEWVSSISSAGTHIYYADSVKGRFTISRDNAKNSLYLQMNSLRAEDTAVYYCARDPHSTGWYKDFDYWGQGTLVTVSSGGGGSEVQLVESGGGVVRPGGSLRLSCAASGFTFDDYAMSWVRQAPGKGLEWVSGITWNGGSTGYADSVKDRFTISRDNAKNSLYLQMNSLRAEDTALYYCVRDKYSYAWSYDDFDIWGQGTMVTVSS

EC50 [4]: 0.164 nM
EC50 [5]: 0.157 nM
B3: TPP-942: PDA-6GS-172E1-13-6GS-HSA2-2-His (bispecific antibody)
chain: EVQLVESGGGLVQPGRSLRLSCAASGFTFDDYALHWVRQAPGKDLEWVSGISWNGGSYGYADSVKGRFTISRDNAKNSLYLQMNSLRAEDTALYYCVREKGPGLTGSTADYYGLDAWGQGTMVTVSSGGGGSGGGGSGGGGSGGGGSGGGGSGGGGSEVQLVESGGGVVQPGGSLRLSCAASGFTFSNYGMHWVRQAPGKGLEWVAVISNDGNTKTYADSVKGRFTISRDNSKNTLYLQMNSLRAEDTAVYYCAQDETTTVTASYYFDYWGQGTLVTVSSGGGGSGGGGSGGGGSGGGGSGGGGSGGGGSEVQLVESGGGLVKPGGSLRLSCAASGFTFSNYNMNWVRQAPGKGLEWVSSISSAGTHIYYADSVKGRFTISRDNAKNSLYLQMNSLRAEDTAVYYCARDPHSTGWYKDFDYWGQGTLVTVSSAAAHHHHHH
notes: Single-chain fusion of VH single domains (PD-1 VH, CD137 VH, HSA VH) joined by 6GS linkers, His tag

Kd [1]: 1.47 nM
koff [1]: 0.000121 s⁻¹
kon [1]: 81800 M⁻¹ s⁻¹
Kd [2]: 7.57 nM
koff [2]: 0.00224 s⁻¹
kon [2]: 296000 M⁻¹ s⁻¹
B4: TPP-1410 PD138G7(G109D)-1GS-CD137A-6GS-HSA2 (bispecific antibody)
chain: EVQLVESGGGVVRPGGSLRLSCAASGFTFDDYAMSWVRQAPGKGLEWVSGITWNGGSTGYADSVKDRFTISRDNAKNSLYLQMNSLRAEDTALYYCVRDKYSYAWSYDDFDIWGQGTMVTVSSGGGGSEVQLVESGGGLVQPGGSLRLSCAASGFTLSNYWMNWVRQAPGKGLEWVANINQDGSERYYVDSVKGRFTISRDNAKNSLYLQMNSLRAEDTAVYYCARGGEGYGVDHYGLDVSGQGTTVTVSSGGGGSGGGGSGGGGSGGGGSGGGGSGGGGSEVQLVESGGGLVKPGGSLRLSCAASGFTFSNYNMNWVRQAPGKGLEWVSSISSAGTHIYYADSVKGRFTISRDNAKNSLYLQMNSLRAEDTAVYYCARDPHSTGWYKDFDYWGQGTLVTVSS

EC50 [4]: 1.23 nM
B5: TPP-1025: CD137A -6GS-HSA3-2-6GS-PDA2-His (bispecific antibody)
chain: EVQLVESGGGLVQPGGSLRLSCAASGFTLSNYWMNWVRQAPGKGLEWVANINQDGSERYYVDSVKGRFTISRDNAKNSLYLQMNSLRAEDTAVYYCARGGEGYGVDHYGLDVSGQGTTVTVSSGGGGSGGGGSGGGGSGGGGSGGGGSGGGGSEVQLLESGGGLVKPGGSLRLSCAASGFTVSSYTMNWVRQAPGKGLEWVSSISSSGRYIYYADSVKGRFTISRDNAKNSLYLQMNSLRAEDTAVYYCARDPRMVGNPHEFDIWGQGTMVTVSSGGGGSGGGGSGGGGSGGGGSGGGGSGGGGSEVQLVESGGGVVRPGGSLRLSCAASGFTFDDYAMSWVRQAPGKGLEWVSGITWNAGSTGYADSVKGRFTISRDNAKNSLYLQMNSLRAEDTALYYCVRDKYSYAWSYDDFDIWGQGTMVTVSSAAAHHHHHH
notes: Single-chain VH fusion (CD137 VH, HSA VH, PD-1 VH), His tag

EC50 [5]: 1.29 nM
Kd [6]: 11.5 nM
koff [6]: 0.00164 s⁻¹
kon [6]: 142000 M⁻¹ s⁻¹
B6: 003BB172-E01-5 (VHH)
VHH: B8 VHH with R16G, G44R
notes: as for B8

EC50 [5]: 0.954 nM
Kd [6]: 22.8 nM
koff [6]: 0.00253 s⁻¹
kon [6]: 111000 M⁻¹ s⁻¹
B7: 003BB172-E01-13 (VHH)
VHH: B8 VHH with L11V, R16G, T88A
notes: Human VH single domain antibody, monovalent; also called CD137D; 172E1-13

EC50 [5]: 1.21 nM
Kd [6]: 38.6 nM
koff [6]: 0.0023 s⁻¹
kon [6]: 59700 M⁻¹ s⁻¹
B13: 003BB172-E01-12 (VHH)
VHH: B8 VHH with T88A
notes: as for B8

Kd [1]: 95.1 nM
koff [1]: 0.00383 s⁻¹
kon [1]: 40300 M⁻¹ s⁻¹
Kd [2]: 4.45 nM
koff [2]: 0.00113 s⁻¹
kon [2]: 255000 M⁻¹ s⁻¹
B16: TPP-1408 PD138G7(G109D)-1GS-HSA2-1GS-CD137D (bispecific antibody)
chain: EVQLVESGGGVVRPGGSLRLSCAASGFTFDDYAMSWVRQAPGKGLEWVSGITWNGGSTGYADSVKDRFTISRDNAKNSLYLQMNSLRAEDTALYYCVRDKYSYAWSYDDFDIWGQGTMVTVSSGGGGSEVQLVESGGGLVKPGGSLRLSCAASGFTFSNYNMNWVRQAPGKGLEWVSSISSAGTHIYYADSVKGRFTISRDNAKNSLYLQMNSLRAEDTAVYYCARDPHSTGWYKDFDYWGQGTLVTVSSGGGGSEVQLVESGGGVVQPGGSLRLSCAASGFTFSNYGMHWVRQAPGKGLEWVAVISNDGNTKTYADSVKGRFTISRDNSKNTLYLQMNSLRAEDTAVYYCAQDETTTVTASYYFDYWGQGTLVTVSS
